The values below come from patent publication US20250011418A1 (ZIELBIO, published 2025).

T1: Sec8-His (section 8 (Sec8), an antigenic region of CSP-1, tagged with a polyhistidine (His) tag)
T1 construct: also called Sec8-His antigen
T1 chain: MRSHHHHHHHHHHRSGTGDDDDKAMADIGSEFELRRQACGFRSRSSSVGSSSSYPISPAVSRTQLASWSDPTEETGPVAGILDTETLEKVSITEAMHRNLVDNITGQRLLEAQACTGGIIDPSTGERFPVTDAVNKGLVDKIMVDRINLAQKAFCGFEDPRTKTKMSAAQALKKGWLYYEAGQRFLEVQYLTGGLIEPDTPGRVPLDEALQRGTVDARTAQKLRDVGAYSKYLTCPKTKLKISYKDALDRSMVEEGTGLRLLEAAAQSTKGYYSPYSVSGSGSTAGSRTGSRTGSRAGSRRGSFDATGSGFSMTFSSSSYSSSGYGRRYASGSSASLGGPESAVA

B1: humanized anti-CSP-1 antibody, Antibody Number 21 (Table 1) (antibody, human IgG1, V domains shown)
VH: EVQLVESGGDLVKPGGSLKLSCAASGFTFSRYGMSWVRQTPDKRLEWVATISIGGTYTYYPDSMKGRFTISRDNAKNTLYLQMSSLKSEDTAMYYCARRGYGNYSYYGVDYWGQGTSVTVSS
VL: DIVMTQAAFSNPVTLGTSASISCRSSKSLLHSNGITYLYWYLQKPGQSPQLLIYQMSNLASGVPDRFSSSGSGTDFTLRISRVEAEDVGVYYCAQNLELPLTFGAGTKLELK
notes: also called Antibody 21
B2: humanized anti-CSP-1 antibody, Antibody Number 30 (Table 1) (antibody, human IgG1, V domains shown)
VH: EVQLVESGGEVVKPGASLKLSCKASGFTFSRYGMSWVRQAPGQRLEWVATISIGGTYTYYPDSMKGRFTITRDNSTNTLYLEMSSLRSEDTAMYYCARRGYGNYSYYGMDYWGQGTLVTVSS
VL: DIVMTQAAFSNPVTLGTSASISCRSSKSLLHSNGITYLYWYLQKPGQSPQLLIYQMSNLASGVPDRFSSSGSGTDFTLRISRVEAEDVGVYYCAQNLELPLTFGAGTKLELK
notes: also called Antibody 30
B3: humanized anti-CSP-1 antibody, Antibody Number 35 (Table 1) (antibody, human IgG1, V domains shown)
VH: EVQLVESGGEVVKPGASLKLSCKASGFTFSRYGMSWVRQAPGQRLEWVATISIGGTYTYYPDSMKGRFTITRDNSTNTLYLEMSSLRSEDTAMYYCARRGYGNYSYYGMDYWGQGTLVTVSS
VL: DIVMTQSALSNPVTLGQSASISCRSSKSLLHSNGITYLYWYLQKPGQSPQLLIYQMSNRASGVPDRFSSSGSGTDFTLKISRVEAEDVGVYYCAQNLELPLTFGQGTKLEIK
notes: also called Antibody 35
B4: humanized anti-CSP-1 antibody, Antibody Number 36 (Table 1) (antibody, human IgG1, V domains shown)
VH: EVQLVESGGGLVQPGGSLRLSCAASGFTFSRYGMSWVRQAPGKRLEWVATISIGGTYTYYPDSMKGRFTISRDNSKNTLYLQMNSLRAEDTAMYYCARRGYGNYSYYGMDYWGQGTLVTVSS
VL: DIVMTQSALSNPVTLGQSASISCRSSKSLLHSNGITYLYWYLQKPGQSPQLLIYQMSNRASGVPDRFSSSGSGTDFTLKISRVEAEDVGVYYCAQNLELPLTFGQGTKLEIK
notes: also called Antibody 36
B5: humanized anti-CSP-1 antibody, Antibody Number 37 (Table 1) (antibody, human IgG1, V domains shown)
VH: EVQLVESGGGLVQPGGSLRLSCAASGFTFSRYGMSWVRQAPGKRLEWVATISIGGTYTYYPDSMKGRFTISRDNSKNTLYLQMNSLRAEDTAMYYCARRGYGNYSYYGMDYWGQGTLVTVSS
VL: DIVMTQSALSLPVTLGQSASISCRSSKSLLHSNGITYLYWYLQKPGQSPQLLIYQMSNRASGVPDRFSSSGSGTDFTLKISRVEAEDVGVYYCAQNLELPLTFGQGTKLEIK
notes: also called Antibody 37
B6: humanized anti-CSP-1 antibody, Antibody Number 38 (Table 1) (antibody, human IgG1, V domains shown)
VH: EVQLVESGGGLVQPGGSLRLSCAASGFTFSRYGMSWVRQAPGKGLEWVATISIGGTYTYYPDSMKGRFTISRDNSKNTLYLQMNSLRAEDTAVYYCARRGYGNYSYYGMDYWGQGTLVTVSS
VL: DIVMTQSALSNPVTLGQSASISCRSSKSLLHSNGITYLYWYLQKPGQSPQLLIYQMSNRASGVPDRFSSSGSGTDFTLKISRVEAEDVGVYYCAQNLELPLTFGQGTKLEIK
notes: also called Antibody 38
B7: humanized anti-CSP-1 antibody, Antibody Number 23 (Table 1) (antibody, human IgG1, V domains shown)
VH: EVQLVESGGDLVKPGGSLKLSCAASGFTFSRYGMSWVRQTPDKRLEWVATISIGGTYTYYPDSMKGRFTISRDNAKNTLYLQMSSLKSEDTAMYYCARRGYGNYSYYGMDYWGQGTSVTVSS
VL: DIVMTQAAFSNPVTLGTSASISCRSSKSLLHSVGITYLYWYLQKPGQSPQLLIYQMSNLASGVPDRFSSSGSGTDFTLRISRVEAEDVGVYYCAQNLELPLTFGAGTKLELK
notes: also called Antibody 23
B8: humanized anti-CSP-1 antibody, Antibody Number 29 (Table 1) (antibody, human IgG1, V domains shown)
VH: EVQLVESGGDLVKPGGSLKLSCAASGFTFSRYGMSWVRQTPDKRLEWVATISIGGTYTYYPDSMKGRFTISRDNAKNTLYLQMSSLKSEDTAMYYCARRGYGNYSYYGMDYWGQGTSVTVSS
VL: DIVMTQAAFSNPVTLGTSASISCRSSKSLLHSNGITYLYWYLQKPGQSPQLLIYQISNLASGVPDRFSSSGSGTDFTLRISRVEAEDVGVYYCAQNLELPLTFGAGTKLELK
notes: also called Antibody 29
B9: humanized anti-CSP-1 antibody, Antibody Number 32 (Table 1) (antibody, human IgG1, V domains shown)
VH: EVQLVESGGGLVQPGGSLRLSCAASGFTFSRYGMSWVRQAPGKGLEWVATISIGGTYTYYPDSMKGRFTISRDNSKNTLYLQMNSLRAEDTAVYYCARRGYGNYSYYGMDYWGQGTLVTVSS
VL: DIVMTQAAFSNPVTLGTSASISCRSSKSLLHSNGITYLYWYLQKPGQSPQLLIYQMSNLASGVPDRFSSSGSGTDFTLRISRVEAEDVGVYYCAQNLELPLTFGAGTKLELK
notes: also called Antibody 32
B10: humanized anti-CSP-1 antibody, Antibody Number 33 (Table 1) (antibody, human IgG1, V domains shown)
VH: EVQLVESGGDLVKPGGSLKLSCAASGFTFSRYGMSWVRQTPDKRLEWVATISIGGTYTYYPDSMKGRFTISRDNAKNTLYLQMSSLKSEDTAMYYCARRGYGNYSYYGMDYWGQGTSVTVSS
VL: DIVMTQSALSNPVTLGQSASISCRSSKSLLHSNGITYLYWYLQKPGQSPQLLIYQMSNRASGVPDRFSSSGSGTDFTLKISRVEAEDVGVYYCAQNLELPLTFGQGTKLEIK
notes: also called Antibody 33
B11: humanized anti-CSP-1 antibody, Antibody Number 26 (Table 1) (antibody, human IgG1, V domains shown)
VH: EVQLVESGGDLVKPGGSLKLSCAASGFTFSRYGMSWVRQTPDKRLEWVATISIGGTYTYYPDSMKGRFTISRDNAKNTLYLQMSSLKSEDTAMYYCARRGYGNYSYYGMDYWGQGTSVTVSS
VL: DIVMTQAAFSNPVTLGTSASISCRSSKSLLHSEGITYLYWYLQKPGQSPQLLIYQMSNLASGVPDRFSSSGSGTDFTLRISRVEAEDVGVYYCAQNLELPLTFGAGTKLELK
notes: also called Antibody 26
B12: humanized anti-CSP-1 antibody, Antibody Number 34 (Table 1) (antibody, human IgG1, V domains shown)
VH: EVQLVESGGDLVKPGGSLKLSCAASGFTFSRYGMSWVRQTPDKRLEWVATISIGGTYTYYPDSMKGRFTISRDNAKNTLYLQMSSLKSEDTAMYYCARRGYGNYSYYGMDYWGQGTSVTVSS
VL: DIVMTQSALSLPVTLGQSASISCRSSKSLLHSNGITYLYWYLQKPGQSPQLLIYQMSNRASGVPDRFSSSGSGTDFTLKISRVEAEDVGVYYCAQNLELPLTFGQGTKLEIK
notes: also called Antibody 34
B13: humanized anti-CSP-1 antibody, Antibody Number 24 (Table 1) (antibody, human IgG1, V domains shown)
VH: EVQLVESGGDLVKPGGSLKLSCAASGFTFSRYGMSWVRQTPDKRLEWVATISIGGTYTYYPDSMKGRFTISRDNAKNTLYLQMSSLKSEDTAMYYCARRGYGNYSYYGMDYWGQGTSVTVSS
VL: DIVMTQAAFSNPVTLGTSASISCRSSKSLLHSDGITYLYWYLQKPGQSPQLLIYQMSNLASGVPDRFSSSGSGTDFTLRISRVEAEDVGVYYCAQNLELPLTFGAGTKLELK
notes: also called Antibody 24
B14: humanized anti-CSP-1 antibody, Antibody Number 31 (Table 1) (antibody, human IgG1, V domains shown)
VH: EVQLVESGGGLVQPGGSLRLSCAASGFTFSRYGMSWVRQAPGKRLEWVATISIGGTYTYYPDSMKGRFTISRDNSKNTLYLQMNSLRAEDTAMYYCARRGYGNYSYYGMDYWGQGTLVTVSS
VL: DIVMTQAAFSNPVTLGTSASISCRSSKSLLHSNGITYLYWYLQKPGQSPQLLIYQMSNLASGVPDRFSSSGSGTDFTLRISRVEAEDVGVYYCAQNLELPLTFGAGTKLELK
notes: also called Antibody 31
B15: humanized anti-CSP-1 antibody, Antibody Number 27 (Table 1) (antibody, human IgG1, V domains shown)
VH: EVQLVESGGDLVKPGGSLKLSCAASGFTFSRYGMSWVRQTPDKRLEWVATISIGGTYTYYPDSMKGRFTISRDNAKNTLYLQMSSLKSEDTAMYYCARRGYGNYSYYGMDYWGQGTSVTVSS
VL: DIVMTQAAFSNPVTLGTSASISCRSSKSLLHSNGITYLYWYLQKPGQSPQLLIYQVSNLASGVPDRFSSSGSGTDFTLRISRVEAEDVGVYYCAQNLELPLTFGAGTKLELK
notes: also called Antibody 27
B16: humanized anti-CSP-1 antibody, Antibody Number 28 (Table 1) (antibody, human IgG1, V domains shown)
VH: EVQLVESGGDLVKPGGSLKLSCAASGFTFSRYGMSWVRQTPDKRLEWVATISIGGTYTYYPDSMKGRFTISRDNAKNTLYLQMSSLKSEDTAMYYCARRGYGNYSYYGMDYWGQGTSVTVSS
VL: DIVMTQAAFSNPVTLGTSASISCRSSKSLLHSNGITYLYWYLQKPGQSPQLLIYQLSNLASGVPDRFSSSGSGTDFTLRISRVEAEDVGVYYCAQNLELPLTFGAGTKLELK
notes: also called Antibody 28
B17: humanized anti-CSP-1 antibody, Antibody Number 25 (Table 1) (antibody, human IgG1, V domains shown)
VH: EVQLVESGGDLVKPGGSLKLSCAASGFTFSRYGMSWVRQTPDKRLEWVATISIGGTYTYYPDSMKGRFTISRDNAKNTLYLQMSSLKSEDTAMYYCARRGYGNYSYYGMDYWGQGTSVTVSS
VL: DIVMTQAAFSNPVTLGTSASISCRSSKSLLHSQGITYLYWYLQKPGQSPQLLIYQMSNLASGVPDRFSSSGSGTDFTLRISRVEAEDVGVYYCAQNLELPLTFGAGTKLELK
notes: also called Antibody 25
B18: humanized anti-CSP-1 antibody, Antibody Number 22 (Table 1) (antibody, human IgG1, V domains shown)
VH: EVQLVESGGDLVKPGGSLKLSCAASGFTFSRYGMSWVRQTPDKRLEWVATISIGGTYTYYPDSMKGRFTISRDNAKNTLYLQMSSLKSEDTAMYYCARRGYGNYSYYGMDYWGQGTSVTVSS
VL: DIVMTQAAFSNPVTLGTSASISCRSSKSLLHSSGITYLYWYLQKPGQSPQLLIYQMSNLASGVPDRFSSSGSGTDFTLRISRVEAEDVGVYYCAQNLELPLTFGAGTKLELK
notes: also called Antibody 22

The assay addresses T1, Sec8-His (section 8 (Sec8), an …). In words: BLI (Octet), single shot: antibody on anti-human IgG tips, 24 nM Sec8-His. As for the experimental part:
After humanization, the antibodies were tested for their capability to bind to an antigenic region of CSP-1 called section 8 (Sec8). Antigen binding was assessed by single-shot Octet analysis. Antibodies were loaded onto anti-human IgG tips, and the loaded tips were dipped into wells containing the Sec8-His antigen. Scouting experiments were used to determine ideal conditions for loading (10 minute incubation in 1 μg/mL IgG) and antigen binding (5 minute incubation in 24 nM Sec8-His, followed by a 5 minute dissociation step in buffer). Two negative controls were included with each experiment. First, a tip was loaded with irrelevant IgG dipped into 24 nM Sec8-His to control for non-specific interactions between the tip and the antigen. Next, tips loaded with humanized 1D7 variants were dipped into 24 nM GST-His to control for off-target binding of the antibody (a significant risk if a given variant is destabilized and/or exposes significant hydrophobic surface). The data from the irrelevant IgG control were subtracted from the data obtained with the […]-loaded tips. The mean and standard deviation of the signal change values for the GST-His control wells were used to calculate a threshold for positive binding (mean+3 standard deviations of the GST-His signal). Variants that were below this threshold are considered to have no specific binding to Sec8.
(Biolayer interferometry detects binding as a change in optical thickness at a sensor tip.)
For the molecule B1, the binding result is given as “binds”.

As to B2, the binding result is listed as “binds”. For the molecule B3, the binding result is listed as “binds”. For B4, the binding result is recorded as “binds”. Turning to B5, the binding result was “binds”. The value for B6 was “binds”. As to B7, the binding result was “binds”. The value for B8 was “binds”; that for B9 was “binds”; that for B10 was “binds”. Consider B11, for which the binding result is “binds”.

For B12, the binding result is “binds”. The value for B13 was “binds”; that for B14 was “binds”; that for B15 was “binds”.

Consider B16, for which the binding result is “binds”.

For B17, the binding result is “binds”. The same measure for B18: “binds”.
